According to article PMC4329827 (Meta Gene, 2015):

Target: T1, MOCS2B wild-type, large subunit of MPT synthase (human, UniProt O96007 1-188)
T1 sequence (looked up): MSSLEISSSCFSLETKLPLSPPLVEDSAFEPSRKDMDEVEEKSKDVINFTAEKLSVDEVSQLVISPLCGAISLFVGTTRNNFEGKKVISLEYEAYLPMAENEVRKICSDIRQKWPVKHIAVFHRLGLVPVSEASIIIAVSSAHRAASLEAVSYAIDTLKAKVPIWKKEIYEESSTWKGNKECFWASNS
Assay: ITC

Kd: 360 ± 47 nM
B1: MOCS2A, small subunit of MPT synthase (activated, thiocarboxylated) (natural protein, human, UniProt O96033 1-88, looked up)
chain: MVPLCQVEVLYFAKSAEITGVRSETISVPQEIKALQLWKEIETRHPGLADVRNQIIFAVRQEYVELGDQLLVLQPGDEIAVIPPISGG
modifications: thiocarboxylated C-terminal tail
